Molecular target: the molecule itself
Assay: SEC

B1: Mycobacterium smegmatis mycothiol S-transferase (MSMEG_0887), native enzyme (enzyme, UniProt A0QQV2 1-185, looked up)
chain: MTAREPTTKTSTGSVNESAAVRELLRDAFTRLIEHVDDLTDGLTEEVSSYRPTPEANSIAWLLWHSARCQDMQLCDIAGVEQVWTRDGWIDRFDLGLPPDDIGYGHSPEEVAKVQAPAELLAGYYHAVHKVTLEYIATVTPGEMDRVVDTNWNPPVTASARLISIIDDCAQHLGQAAYLRGIIPR
In the case of B1, the “stoichiometry N” value is reported as 2.
